From PMC9482650, “Quantitative fragmentomics allow affinity mapping of interactomes” (Nature Communications, 2022)

Tests used:
Test in all cases: holdup assay
Set-up in all cases: key: below the threshold = too weak to quantify, mostly under pKd 3.1 to 4
APBA1_1, Q02410 = biological target: T1, APBA1_1, Q02410
T1 sequence (Q02410 651-752, limits assumed, looked up): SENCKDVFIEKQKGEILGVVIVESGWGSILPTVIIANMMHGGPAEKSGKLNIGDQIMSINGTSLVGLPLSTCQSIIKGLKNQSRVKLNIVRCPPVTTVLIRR

ARHGEF12, Q9NZN5-2 = biological target: ARHGEF12, Q9NZN5-2
ARHGEF12, Q9NZN5-2, sequence (Q9NZN5 other isoform, or with tags, fused parts or gaps): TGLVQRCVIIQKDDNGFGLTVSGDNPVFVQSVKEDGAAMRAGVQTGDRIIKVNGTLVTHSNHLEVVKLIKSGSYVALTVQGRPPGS

DLG1_2, Q12959 = biological target: DLG1_2, Q12959
DLG1_2, Q12959, sequence (Q12959 314-412): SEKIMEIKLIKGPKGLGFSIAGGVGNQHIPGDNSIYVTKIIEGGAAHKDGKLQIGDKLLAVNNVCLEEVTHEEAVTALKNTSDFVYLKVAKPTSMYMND

DLG2_3, Q15700 = biological target: DLG2_3, Q15700
DLG5_1, Q8TDM6 = biological target: DLG5_1, Q8TDM6
DLG5_1, Q8TDM6, sequence (Q8TDM6 617-713): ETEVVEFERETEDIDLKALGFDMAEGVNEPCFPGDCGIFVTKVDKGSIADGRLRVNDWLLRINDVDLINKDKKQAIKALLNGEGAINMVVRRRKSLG

DVL3, Q92997 = biological target: T2, DVL3, Q92997
T2 sequence (Q92997 244-331, limits assumed, looked up): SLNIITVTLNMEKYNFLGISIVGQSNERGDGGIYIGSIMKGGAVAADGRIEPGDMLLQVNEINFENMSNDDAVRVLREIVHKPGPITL

GRIP1_2, Q9Y3R0 = biological target: T3, GRIP1_2, Q9Y3R0
T3 sequence (Q9Y3R0 145-248, limits assumed, looked up): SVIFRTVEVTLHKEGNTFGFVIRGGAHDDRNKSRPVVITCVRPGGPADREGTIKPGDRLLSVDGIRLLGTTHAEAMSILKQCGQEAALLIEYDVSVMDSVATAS

GRIP2_3, Q9C0E4 = biological target: GRIP2_3, Q9C0E4
GRIP2_3, Q9C0E4, sequence (Q9C0E4 238-339): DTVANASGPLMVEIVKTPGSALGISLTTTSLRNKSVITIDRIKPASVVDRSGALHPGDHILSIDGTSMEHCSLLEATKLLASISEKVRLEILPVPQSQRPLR

HTRA4, P83105 = biological target: T4, HTRA4, P83105
T4 sequence (P83105 378-476, limits assumed, looked up): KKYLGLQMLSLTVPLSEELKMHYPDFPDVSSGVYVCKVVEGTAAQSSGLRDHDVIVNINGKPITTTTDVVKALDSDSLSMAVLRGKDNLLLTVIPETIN

IL16_1, Q14005 = biological target: IL16_1, Q14005
IL16_1, Q14005, sequence (Q14005 210-306): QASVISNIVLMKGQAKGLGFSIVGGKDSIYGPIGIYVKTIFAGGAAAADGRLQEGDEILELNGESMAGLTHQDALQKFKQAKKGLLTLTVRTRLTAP

Inadl_10, Q8NI35 = biological target: Inadl_10, Q8NI35
Inadl_10, Q8NI35, sequence (Q8NI35 1673-1763): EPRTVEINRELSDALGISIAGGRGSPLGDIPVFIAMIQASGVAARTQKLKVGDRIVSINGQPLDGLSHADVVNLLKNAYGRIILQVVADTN

Inadl_8, Q8NI35 = biological target: Inadl_8, Q8NI35
Inadl_8, Q8NI35, sequence (Q8NI35 1425-1530): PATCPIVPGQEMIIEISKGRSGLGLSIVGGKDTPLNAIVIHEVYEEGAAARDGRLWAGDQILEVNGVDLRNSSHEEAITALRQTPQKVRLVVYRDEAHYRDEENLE

LIMK2, P53671 = biological target: LIMK2, P53671
LIMK2, P53671, sequence (P53671 143-248): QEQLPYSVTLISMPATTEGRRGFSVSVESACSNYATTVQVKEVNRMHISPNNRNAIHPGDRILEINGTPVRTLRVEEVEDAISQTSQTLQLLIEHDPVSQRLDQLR

LIN7C, Q9NUP9 = biological target: T5, LIN7C, Q9NUP9
T5 sequence (Q9NUP9 88-185, limits assumed, looked up): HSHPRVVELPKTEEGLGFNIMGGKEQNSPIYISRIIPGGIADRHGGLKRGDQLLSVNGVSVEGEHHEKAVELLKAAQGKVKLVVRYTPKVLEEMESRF

MAGI2_2, Q86UL8 = biological target: MAGI2_2, Q86UL8
MAGI2_2, Q86UL8, sequence (Q86UL8 410-522): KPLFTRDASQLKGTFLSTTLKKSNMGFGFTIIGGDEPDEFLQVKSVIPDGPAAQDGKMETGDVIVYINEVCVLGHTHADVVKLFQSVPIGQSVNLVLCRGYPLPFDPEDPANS

MAGI2_5, Q86UL8 = biological target: MAGI2_5, Q86UL8
MAGI2_5, Q86UL8, sequence (Q86UL8 915-1017): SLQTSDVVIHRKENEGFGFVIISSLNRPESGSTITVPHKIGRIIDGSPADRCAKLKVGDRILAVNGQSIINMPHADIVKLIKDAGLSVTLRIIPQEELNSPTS

MAST2, Q6P0Q8 = biological target: MAST2, Q6P0Q8
MAST2, Q6P0Q8, sequence (Q6P0Q8 1099-1202): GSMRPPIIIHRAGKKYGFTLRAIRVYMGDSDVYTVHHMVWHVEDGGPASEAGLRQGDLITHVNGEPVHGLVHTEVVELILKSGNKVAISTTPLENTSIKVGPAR

NHERF4_1, Q86UT5-2 = biological target: NHERF4_1, Q86UT5-2
NHERF4_1, Q86UT5-2, sequence (Q86UT5 other isoform, or with tags, fused parts or gaps): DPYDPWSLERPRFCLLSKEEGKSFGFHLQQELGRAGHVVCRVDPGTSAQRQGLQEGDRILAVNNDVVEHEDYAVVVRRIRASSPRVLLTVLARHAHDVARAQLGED

NHERF4_4, Q86UT5 = biological target: NHERF4_4, Q86UT5
NHERF4_4, Q86UT5, sequence (Q86UT5 464-550): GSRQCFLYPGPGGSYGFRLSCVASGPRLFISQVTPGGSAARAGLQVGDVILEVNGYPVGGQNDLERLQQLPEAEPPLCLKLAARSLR

RAPGEF6, Q8TEU7 = biological target: T6, RAPGEF6, Q8TEU7
T6 sequence (Q8TEU7 525-625, limits assumed, looked up): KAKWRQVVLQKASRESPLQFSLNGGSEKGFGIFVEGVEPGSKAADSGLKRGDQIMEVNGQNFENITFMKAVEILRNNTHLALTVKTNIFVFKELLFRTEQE

RHPN1, Q8TCX5 = biological target: T7, RHPN1, Q8TCX5
T7 sequence (Q8TCX5 508-602, limits assumed, looked up): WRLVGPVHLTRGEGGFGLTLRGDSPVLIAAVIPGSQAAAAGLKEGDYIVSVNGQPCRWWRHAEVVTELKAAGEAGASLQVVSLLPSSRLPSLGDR

SNTA1, Q13424 = biological target: T8, SNTA1, Q13424
T8 sequence (Q13424 82-180, limits assumed, looked up): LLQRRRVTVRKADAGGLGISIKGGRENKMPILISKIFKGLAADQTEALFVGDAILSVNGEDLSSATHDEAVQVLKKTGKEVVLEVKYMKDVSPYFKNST

SNTB1, Q13884 = biological target: T9, SNTB1, Q13884
T9 sequence (Q13884 107-205, limits assumed, looked up): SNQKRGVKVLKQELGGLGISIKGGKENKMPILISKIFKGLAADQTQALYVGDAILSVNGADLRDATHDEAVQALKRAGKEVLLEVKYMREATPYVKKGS

SNTG1, Q9NSN8 = biological target: T10, SNTG1, Q9NSN8
T10 sequence (Q9NSN8 52-150, limits assumed, looked up): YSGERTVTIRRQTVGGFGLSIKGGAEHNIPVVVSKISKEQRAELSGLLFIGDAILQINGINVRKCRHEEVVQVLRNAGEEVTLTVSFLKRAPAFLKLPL

TJP2_1, Q9UDY2 = biological target: TJP2_1, Q9UDY2
TJP2_1, Q9UDY2, sequence (Q9UDY2 24-128): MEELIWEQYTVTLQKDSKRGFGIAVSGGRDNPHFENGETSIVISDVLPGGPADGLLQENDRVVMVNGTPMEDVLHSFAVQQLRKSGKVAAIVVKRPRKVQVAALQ

TX1BP3, O14907 = biological target: T11, TX1BP3, O14907
T11 sequence (O14907 10-122, limits assumed, looked up): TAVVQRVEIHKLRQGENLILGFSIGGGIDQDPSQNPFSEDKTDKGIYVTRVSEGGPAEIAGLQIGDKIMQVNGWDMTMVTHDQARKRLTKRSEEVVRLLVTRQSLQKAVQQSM

[1] = plain residues with an end cap or a label only (N-terminal biotin on a linker: ttds)
[2] = plain residues with an end cap or a label only (N-terminal biotin on a linker: ahx)

Binder: VNKVWDQSSV [CIT, O14578]
- pKd (APBA1_1, Q02410; [1]): below the threshold
- pKd (ARHGEF12, Q9NZN5-2; [1]): below the threshold
- pKd (DLG1_2, Q12959; [1]): 3.48
- pKd (DLG2_3, Q15700; [1]): 3.71
- pKd (DLG5_1, Q8TDM6; [1]): below the threshold
- pKd (DVL3, Q92997; [1]): below the threshold
- pKd (GRIP1_2, Q9Y3R0; [1]): below the threshold
- pKd (GRIP2_3, Q9C0E4; [1]): below the threshold
- pKd (HTRA4, P83105; [1]): below the threshold
- pKd (IL16_1, Q14005; [1]): 3.68
- pKd (Inadl_10, Q8NI35; [1]): below the threshold
- pKd (Inadl_8, Q8NI35; [1]): 4
- pKd (LIMK2, P53671; [1]): below the threshold
- pKd (LIN7C, Q9NUP9; [1]): below the threshold
- pKd (MAGI2_2, Q86UL8; [1]): below the threshold
- pKd (MAGI2_5, Q86UL8; [1]): 3.7
- pKd (MAST2, Q6P0Q8; [1]): 5.14
- pKd (NHERF4_1, Q86UT5-2; [1]): below the threshold
- pKd (NHERF4_4, Q86UT5; [1]): below the threshold
- pKd (RAPGEF6, Q8TEU7; [1]): below the threshold
- pKd (RHPN1, Q8TCX5; [1]): 3.82
- pKd (SNTA1, Q13424; [1]): below the threshold
- pKd (SNTB1, Q13884; [1]): below the threshold
- pKd (SNTG1, Q9NSN8; [1]): 3.73
- pKd (TJP2_1, Q9UDY2; [1]): below the threshold
- pKd (TX1BP3, O14907; [1]): 6.25

Binder: SEKHFRETEV [HTLV1-TAX1, P03409]
- pKd (APBA1_1, Q02410; [1]): below the threshold
- pKd (ARHGEF12, Q9NZN5-2; [1]): 3.81
- pKd (DLG1_2, Q12959; [1]): 5.75
- pKd (DLG2_3, Q15700; [1]): 5.36
- pKd (DLG5_1, Q8TDM6; [1]): below the threshold
- pKd (DVL3, Q92997; [1]): 3.62
- pKd (GRIP1_2, Q9Y3R0; [1]): below the threshold
- pKd (GRIP2_3, Q9C0E4; [1]): below the threshold
- pKd (HTRA4, P83105; [1]): below the threshold
- pKd (IL16_1, Q14005; [1]): 4.44
- pKd (Inadl_10, Q8NI35; [1]): below the threshold
- pKd (Inadl_8, Q8NI35; [1]): 3.86
- pKd (LIMK2, P53671; [1]): below the threshold
- pKd (LIN7C, Q9NUP9; [1]): 4.59
- pKd (MAGI2_2, Q86UL8; [1]): 4.57
- pKd (MAGI2_5, Q86UL8; [1]): 4.84
- pKd (MAST2, Q6P0Q8; [1]): 5.42
- pKd (NHERF4_1, Q86UT5-2; [1]): below the threshold
- pKd (NHERF4_4, Q86UT5; [1]): below the threshold
- pKd (RAPGEF6, Q8TEU7; [1]): below the threshold
- pKd (RHPN1, Q8TCX5; [1]): 4.08
- pKd (SNTA1, Q13424; [1]): 5.9
- pKd (SNTB1, Q13884; [1]): 6.12
- pKd (SNTG1, Q9NSN8; [1]): 5.43
- pKd (TJP2_1, Q9UDY2; [1]): below the threshold
- pKd (TX1BP3, O14907; [1]): 6.2

Binder: EKLSSIESDV [GRIN2B, Q13224]
- pKd (APBA1_1, Q02410; [2]): below the threshold
- pKd (ARHGEF12, Q9NZN5-2; [2]): 3.68
- pKd (DLG1_2, Q12959; [2]): 4.97
- pKd (DLG2_3, Q15700; [2]): 4.56
- pKd (DLG5_1, Q8TDM6; [2]): below the threshold
- pKd (DVL3, Q92997; [2]): below the threshold
- pKd (GRIP1_2, Q9Y3R0; [2]): below the threshold
- pKd (GRIP2_3, Q9C0E4; [2]): below the threshold
- pKd (HTRA4, P83105; [2]): below the threshold
- pKd (IL16_1, Q14005; [2]): 4.02
- pKd (Inadl_10, Q8NI35; [2]): below the threshold
- pKd (Inadl_8, Q8NI35; [2]): below the threshold
- pKd (LIMK2, P53671; [2]): below the threshold
- pKd (LIN7C, Q9NUP9; [2]): below the threshold
- pKd (MAGI2_2, Q86UL8; [2]): below the threshold
- pKd (MAGI2_5, Q86UL8; [2]): 3.82
- pKd (MAST2, Q6P0Q8; [2]): 4.49
- pKd (NHERF4_1, Q86UT5-2; [2]): 3.53
- pKd (NHERF4_4, Q86UT5; [2]): below the threshold
- pKd (RAPGEF6, Q8TEU7; [2]): below the threshold
- pKd (RHPN1, Q8TCX5; [2]): 4.73
- pKd (SNTA1, Q13424; [2]): 4.39
- pKd (SNTB1, Q13884; [2]): 4.46
- pKd (SNTG1, Q9NSN8; [2]): 4.8
- pKd (TJP2_1, Q9UDY2; [2]): below the threshold
- pKd (TX1BP3, O14907; [2]): 4.74
